Measured values taken from patent publication US20130115208A1.
Numbering of substitutions follows the chain as printed. Names and notes keep the numbering of the source. Values belong to the molecule of their own block, whether it stands above or below them.

Target: human-FcRn (neonatal Fc receptor) (human) (UniProt P55899)
Test: SPR (ProteOn XPR36), IgG amine-coupled on reaction spots, human FcRn injected in kinetic titration, pH 6.0

Kd: 983 nM
Molecule: hIgG2ΔA (control) (antibody)

Kd: 600 nM
B1: hIgG2.EEE.L368E.Ab1.Ab1/hIgG2.RRR.K409R.Ab2.Ab2 (bispecific antibody, part only; not given: Variable regions and light chains, not shown: another chain or arm of the molecule)
constant 1: ASTKGPSVFPLAPCSRSTSESTAALGCLVKDYFPEPVTVSWNSGALTSGVHTFPAVLQSSGLYSLSSVVTVPSSNFGTQTYTCNVDHKPSNTKVDKTVERKCEVECPECPAPPVAGPSVFLFPPKPKDTLMISRTPEVTCVVVDVSHEDPEVQFNWYVDGVEVHNAKTKPREEQFNSTFRVVSVLTVVHQDWLNGKEYKCKVSNKGLPSSIEKTISKTKGQPREPQVYTLPPSREEMTKNQVSLTCEVKGFYPSDIAVEWESNGQPENNYKTTPPMLDSDGSFFLYSKLTVDKSRWQQGNVFSCSVMHEALHNHYTQKSLSLSPGK
constant 2: B1 constant 1 with E103R, E105R, E108R, E247L, K288R
